Read-outs that look alike come from different tables or passages of the source.
B1: Fab LG4: anti-MMP-12 antibody clone; VL SEQ ID NO:112, VH SEQ ID NO:114, CDR-H3 SEQ ID NO:117 (antibody, V domains shown)
VH: EVQLVESGGGLVQPGGSLRLSCAASGFNLYYSYMHWVRQAPGKGLEWVASISSYYGYTSYADSVKGRFTISADTSKNTAYLQMNSLRAEDTAVYYCARSPIVYYELFMFIDMGAQGWKYGMDYWGQGTLVTVSSAS
VL: DIQMTQSPSSLSASVGDRVTITCRASQSVSSAVAWYQQKPGKAPKLLIYSASSLYSGVPSRFSGSRSGTDFTLTISSLQPEDFATYYCQQTFYPFTFGQGTKVEIKR
B2: Fab LH6: anti-MMP-12 antibody clone; VL SEQ ID NO:118, VH SEQ ID NO:120, CDR-H3 SEQ ID NO:123 (antibody, V domains shown)
VH: EVQLVESGGGLVQPGGSLRLSCAASGFNLSYSYMHWVRQAPGKGLEWVASIYPSYGSTYYADSVKGRFTISADTSKNTAYLQMNSLRAEDTAVYYCARDLEESLPKRARTAVSKELESVPYVMDYWGQGTLVTVSSAS
VL: DIQMTQSPSSLSASVGDRVTITCRASQSVSSAVAWYQQKPGKAPKLLIYSASSLYSGVPSRFSGSRSGTDFTLTISSLQPEDFATYYCQQSSHYASPPITFGQGTKVEIKR

Legend:
cdMMP-12 wt [1] = target: T1, cdMMP-12 wt (Homo sapiens, UniProt P39900); assay: Inhibition of proteolysis of modified TEM-1 ([…]) by cdMMP-12 wt; type: biochemical; details: 10 μM Fab, 700 nM cdMMP-12 wt, 250 nM modified TEM-1, 4 h
T1 construct: hexahistidine (C); made in house; host or cells: E. coli BL21 (pET32b, cytoplasmic)
T1 sequence (P39900 106-263): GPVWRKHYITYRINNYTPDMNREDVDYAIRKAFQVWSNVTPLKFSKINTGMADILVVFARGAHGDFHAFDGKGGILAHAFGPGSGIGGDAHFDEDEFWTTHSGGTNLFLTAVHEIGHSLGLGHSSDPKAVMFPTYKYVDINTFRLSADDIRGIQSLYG
Procedure: Inhibition tests with macromolecular substrates 10 μg/mL FITC-conjugated elastin (AnaSpec) was incubated with 7 nM cdMMP-12 D4/wt and 2-2000 nM purified Fab in 50 mM Tris-HCl, 150 mM NaCl, 5 mM CaCl2), 100 μM ZnCl2 pH 7.5. Generated fluorescent signals were measured at 12 h with λEx of 490 nm and λEm of 520 nm. For inhibition assays on fibronectin, 200 nM fibronectin (Corning) was incubated with 200-350 nM cdMMP-12 wt and 2 μM GM6001 or 0.1-6 μM Fabs in 50 mM HEPES, 150 mM NaCl pH 7.5 at 37° C. for 2-4 h. The samples were separated on 5% non-reducing SDS-PAGE and analyzed by western blotting with anti-Fibronectin antibody (Abcam) and chemiluminescent substrate (Thermo Scientific). For inhibition assays on modified TEM-1 carrying cleavable sequence ([…] (SEQ ID NO:134)) and a N-terminal HA tag, 250 nM modified TEM-1 was incubated with 700 nM cdMMP-12 wt and 10 μM Fabs in 50 mM HEPES, 150 mM NaCl pH 7.5 at 37° C. for 4 h. The samples were separated on 12% non-reducing SDS-PAGE, and the modified TEM-1 was visualized by western blotting using anti-HA antibody (Invitrogen) and chemiluminescent substrate. Assays without cdMMP-12s or Fabs were performed as controls.

cdMMP-9 [2] = assay: Bio-layer interferometry on cdMMP-9; type: binding; details: for Kd: read-out: KD toward cdMMP-9
cdMMP-9, sequence (P14780 with tags, fused parts or gaps DEL216-390 limits assumed): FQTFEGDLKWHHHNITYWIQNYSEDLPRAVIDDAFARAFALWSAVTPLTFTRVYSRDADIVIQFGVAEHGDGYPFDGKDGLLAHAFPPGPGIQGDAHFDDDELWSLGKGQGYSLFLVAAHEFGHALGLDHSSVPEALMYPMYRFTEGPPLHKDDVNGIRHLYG

cdMMP-12 wt [3] = target: T1, cdMMP-12 wt; assay: FRET peptide inhibition assay, cdMMP-12 wt; type: biochemical; details: toward cdMMP-12 wild type
Procedure: (§1) FRET peptide inhibition assays In 96-well assay plates (Corning), 60/250/350/10/10/30 nM of (cd)MMP-1/-7/-9/-12 D4/-12 wt/-14 were preincubated with 1 nM-1 μM purified Fabs for 30 min at room temperature then 1 μM substrate M-2350 (Bachem) was added. Generated fluorescent signals (λEx=328 nm, λEm=393 nm) were monitored at 37° C. to measure the initial velocities. To calculate inhibition constants (KIs), data were fit with the equations for slow tight-binding inhibitors. The inhibition type of the Fabs was determined using the initial velocities of cdMMP-12 D4 as a function of substrate concentration (250-2000 nM) at various Fab concentrations (31-500 nM). The values of Vmax and Km were derived from linearization in accordance with the Lineweaver-Burk equation.

cdMMP-12 mutant D4 [4] = target: T2, cdMMP-12 mutant D4 (Homo sapiens, UniProt P39900, A167E/A173P/A252Q/H206S/I245T/K233R/M156E/N119Q/N126H/R135E/T215V/V161I/Y113D/Y132K); assay: FRET peptide inhibition assay, cdMMP-12 D4; type: biochemical; details: cdMMP-12 D4, FRET peptide, 31-500 nM Fab
T2 construct: hexahistidine (C); made in house; host or cells: E. coli BL21, pET32b (cytoplasmic, soluble fraction)
T2 sequence (P39900 106-263 Y113D/N119Q/N126H/Y132K/R135E/M156E/V161I/A167E/A173P/H206S/T215V/K233R/I245T/A252Q): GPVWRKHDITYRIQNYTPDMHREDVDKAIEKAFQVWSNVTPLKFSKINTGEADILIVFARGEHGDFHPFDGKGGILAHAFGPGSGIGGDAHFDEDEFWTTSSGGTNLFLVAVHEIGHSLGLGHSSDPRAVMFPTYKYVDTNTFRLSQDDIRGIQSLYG
Procedure: as §1

cdMMP-14 [5] = target: T3, cdMMP-14 (Homo sapiens, UniProt P50281); assay: Bio-layer interferometry on cdMMP-14; type: binding; set-up: human MMP-14 (residue 114-320); hexahistidine (C); made in house; host or cells: E. coli periplasm
cdMMP-12 wt [6] = target: T1, cdMMP-12 wt; assay: Proteolytic stability of Fabs with cdMMP-12 wt; type: physicochemical; details: 2 μM Fab, 2 μM cdMMP-12 wt, 4 h, 37° C.
Procedure: (§2) Proteolytic stability tests 2 μM purified Fabs were incubated with 2 μM cdMMP-12 wt/D4 in 50 mM HEPES, 150 mM NaCl pH 7.5 at 37° C. for 4 h. Samples were analyzed by using 12% non-reducing SDS-PAGE and stained with Coomassie blue. Densitometric interpretation was conducted using a ChemiDoc imager (Bio-Rad).

cdMMP-12 mutant D4 [7] = target: T2, cdMMP-12 mutant D4; assay: Proteolytic stability of Fabs with cdMMP-12 D4; type: physicochemical; details: 2 μM Fab, 2 μM cdMMP-12 D4, 4 h, 37° C.
Procedure: as §2

cdMMP-12 wt [8] = target: T1, cdMMP-12 wt; assay: Fibronectin proteolysis inhibition, cdMMP-12 wt (western blot); type: biochemical; details: for Fibronectin remaining after cdMMP-12 wt hydrolysis: 6 μM Fab, 350 nM wt cdMMP-12, 200 nM fibronectin, 37° C.; for Inhibition Fibronectin IC50: toward cdMMP-12 wild type, 200 nM enzyme, 200 nM fibronectin
Procedure: Inhibition tests with macromolecular substrates 10 μg/mL FITC-conjugated elastin (AnaSpec) was incubated with 7 nM cdMMP-12 D4/wt and 2-2000 nM purified Fab in 50 mM Tris-HCl, 150 mM NaCl, 5 mM CaCl2), 100 μM ZnCl2 pH 7.5. Generated fluorescent signals were measured at 12 h with λEx of 490 nm and λEm of 520 nm. […] The samples were separated on 5% non-reducing SDS-PAGE and analyzed by western blotting with anti-Fibronectin antibody (Abcam) and chemiluminescent substrate (Thermo Scientific). […] Assays without cdMMP-12s or Fabs were performed as controls.

cdMMP-14 [9] = target: T3, cdMMP-14; assay: FRET peptide inhibition assay, cdMMP-14 (Example 2); type: biochemical; set-up: human MMP-14 (residue 114-320); hexahistidine (C); made in house; host or cells: E. coli periplasm
Procedure: as §1

cdMMP-9 [10] = assay: FRET peptide inhibition assay, cdMMP-9 (Example 2); type: biochemical
Procedure: as §1

MMP-1 = target: T4, MMP-1 (Homo sapiens, UniProt P03956); assay: FRET peptide inhibition assay, MMP-1; type: biochemical; details: listed as LH6
T4 construct: purchased AnaSpec
T4 sequence (P03956 100-469): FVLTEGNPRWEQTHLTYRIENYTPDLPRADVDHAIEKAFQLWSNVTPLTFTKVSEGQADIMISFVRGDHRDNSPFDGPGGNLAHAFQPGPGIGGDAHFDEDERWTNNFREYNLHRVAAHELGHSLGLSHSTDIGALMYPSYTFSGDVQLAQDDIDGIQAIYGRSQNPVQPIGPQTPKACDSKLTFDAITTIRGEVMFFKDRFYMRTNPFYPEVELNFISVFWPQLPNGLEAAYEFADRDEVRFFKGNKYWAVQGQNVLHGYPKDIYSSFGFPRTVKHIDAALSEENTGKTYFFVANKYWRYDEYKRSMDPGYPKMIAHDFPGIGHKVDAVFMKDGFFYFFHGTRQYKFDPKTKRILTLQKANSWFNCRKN
Procedure: as §1

MMP-7 = target: T5, MMP-7 (Homo sapiens, UniProt P09237); assay: FRET peptide inhibition assay, MMP-7; type: biochemical; details: listed as LH6
T5 construct: purchased AnaSpec
T5 sequence (P09237 95-267): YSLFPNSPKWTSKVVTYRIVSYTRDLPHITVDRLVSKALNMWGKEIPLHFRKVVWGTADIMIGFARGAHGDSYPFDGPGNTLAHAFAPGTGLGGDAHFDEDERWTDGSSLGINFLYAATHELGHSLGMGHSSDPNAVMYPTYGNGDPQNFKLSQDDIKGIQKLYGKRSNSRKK
Procedure: as §1

Row | Molecule | Inhibition of modified TEM-1 (PLGLEEAK) proteolysis (cdMMP-12 wt [1]) | Kd (cdMMP-9 [2]; listed as LG4) | Inhibition FRET peptide (cdMMP-12 wt [3]; listed as LG4) | Type of inhibition (Lineweaver-Burk) (cdMMP-12 mutant D4 [4]) | Kd (cdMMP-14 [5]; listed as LG4, read-out: KD toward cdMMP-14) | Fab remained intact after exposure to cdMMP-12 wt (cdMMP-12 wt [6]) | Degradation of Fab by cdMMP-12 D4 (cdMMP-12 mutant D4 [7]) | Fibronectin remaining after cdMMP-12 wt hydrolysis (cdMMP-12 wt [8]) | Inhibition Fibronectin IC50 (cdMMP-12 wt [8]) | KD fold, cdMMP-9 compared with cdMMP-12 wt (cdMMP-9 [2]) | Kd (cdMMP-9 [2]) | K1 fold, cdMMP-14 compared with cdMMP-12 mutant D4 (cdMMP-14 [9]) | Inhibition FRET peptide (cdMMP-12 wt [3]; listed as LH6) | K1 fold, cdMMP-9 compared with cdMMP-12 mutant D4 (cdMMP-9 [10]) | Ki (cdMMP-9 [10]; FRET peptide, read-out: K1 toward cdMMP-9) | Inhibition of MMP-1 (selectivity) (MMP-1) | KD fold, cdMMP-14 compared with cdMMP-12 wt (cdMMP-14 [5]) | Inhibition of MMP-7 (selectivity) (MMP-7)
1 | B1 | significant inhibition | 720 nM | non- | substrate competitive manner | ~700 nM | 54% | no significant degradation | significant amounts of fibronectin remained | Inhib. | – | – | – | – | – | – | – | – | –
2 | B2 | – | – | – | substrate competitive manner | – | 56% | no significant degradation | significant amounts of fibronectin remained | Inhib. | (2.2-fold), | 950 nM | (52-fold) | non- | (16-fold) | 1500 nM | did not inhibit and non- | (1.1-fold), | did not inhibit and non-

Reference: patent US11332546B2, “Protease inhibitory antibodies and methods of use thereof” (The Regents of The University of California, priority 2019, dated 2022)
